Laboratory results taken from patent US20200179510A1, “LOW DENSITY LIPOPROTEIN RECEPTOR RELATED PROTEIN 5 INHIBITION SUPPRESSES TUMOR FORMATION” (YALE UNIVERSITY, priority 2017, published 2020).

Tests used:
[1] = system: phospho-STAT5 nuclear localization; test: Immunocytostaining of phospho-STAT5 localization in NK cells; format: cell-based, mouse
Procedure: They were then placed on poly-lysine coated coverslips and incubated for 30 min at room temperature. Cells were fixed with 4% PFA for 10 min at room temperature and permeabilized with ice-cold methanol for 10 min at −20° C. After rinsed with PBS for 3 times, cells were blocked with a blocking buffer (5% normal donkey serum and 0.5% triton in PBS) for 1 hr at room temperature. Primary antibodies were then diluted in PBS with 0.5% BSA and applied to cells with overnight incubation at 4° C. Cells were rinsed with PBS for 3 times and incubated with diluted fluorochrome-conjugated secondary antibodies (in PBS with 1% BSA) for 1 hr at room temperature. Finally, cells were rinsed with PBS for 3 times and mounted with Prolong Gold Antifade solution (Thermo Fisher) for confocal microscopy.

LRP6 = target: T1, LRP6 (Homo sapiens, UniProt O75581); test: LRP internalization assay, LRP6; format: cell-based; conditions: HEK293 cells, DKK2 4 nM
T1 construct: endogenous in cells; host or cells: HEK293
T1 sequence (O75581 20-1613): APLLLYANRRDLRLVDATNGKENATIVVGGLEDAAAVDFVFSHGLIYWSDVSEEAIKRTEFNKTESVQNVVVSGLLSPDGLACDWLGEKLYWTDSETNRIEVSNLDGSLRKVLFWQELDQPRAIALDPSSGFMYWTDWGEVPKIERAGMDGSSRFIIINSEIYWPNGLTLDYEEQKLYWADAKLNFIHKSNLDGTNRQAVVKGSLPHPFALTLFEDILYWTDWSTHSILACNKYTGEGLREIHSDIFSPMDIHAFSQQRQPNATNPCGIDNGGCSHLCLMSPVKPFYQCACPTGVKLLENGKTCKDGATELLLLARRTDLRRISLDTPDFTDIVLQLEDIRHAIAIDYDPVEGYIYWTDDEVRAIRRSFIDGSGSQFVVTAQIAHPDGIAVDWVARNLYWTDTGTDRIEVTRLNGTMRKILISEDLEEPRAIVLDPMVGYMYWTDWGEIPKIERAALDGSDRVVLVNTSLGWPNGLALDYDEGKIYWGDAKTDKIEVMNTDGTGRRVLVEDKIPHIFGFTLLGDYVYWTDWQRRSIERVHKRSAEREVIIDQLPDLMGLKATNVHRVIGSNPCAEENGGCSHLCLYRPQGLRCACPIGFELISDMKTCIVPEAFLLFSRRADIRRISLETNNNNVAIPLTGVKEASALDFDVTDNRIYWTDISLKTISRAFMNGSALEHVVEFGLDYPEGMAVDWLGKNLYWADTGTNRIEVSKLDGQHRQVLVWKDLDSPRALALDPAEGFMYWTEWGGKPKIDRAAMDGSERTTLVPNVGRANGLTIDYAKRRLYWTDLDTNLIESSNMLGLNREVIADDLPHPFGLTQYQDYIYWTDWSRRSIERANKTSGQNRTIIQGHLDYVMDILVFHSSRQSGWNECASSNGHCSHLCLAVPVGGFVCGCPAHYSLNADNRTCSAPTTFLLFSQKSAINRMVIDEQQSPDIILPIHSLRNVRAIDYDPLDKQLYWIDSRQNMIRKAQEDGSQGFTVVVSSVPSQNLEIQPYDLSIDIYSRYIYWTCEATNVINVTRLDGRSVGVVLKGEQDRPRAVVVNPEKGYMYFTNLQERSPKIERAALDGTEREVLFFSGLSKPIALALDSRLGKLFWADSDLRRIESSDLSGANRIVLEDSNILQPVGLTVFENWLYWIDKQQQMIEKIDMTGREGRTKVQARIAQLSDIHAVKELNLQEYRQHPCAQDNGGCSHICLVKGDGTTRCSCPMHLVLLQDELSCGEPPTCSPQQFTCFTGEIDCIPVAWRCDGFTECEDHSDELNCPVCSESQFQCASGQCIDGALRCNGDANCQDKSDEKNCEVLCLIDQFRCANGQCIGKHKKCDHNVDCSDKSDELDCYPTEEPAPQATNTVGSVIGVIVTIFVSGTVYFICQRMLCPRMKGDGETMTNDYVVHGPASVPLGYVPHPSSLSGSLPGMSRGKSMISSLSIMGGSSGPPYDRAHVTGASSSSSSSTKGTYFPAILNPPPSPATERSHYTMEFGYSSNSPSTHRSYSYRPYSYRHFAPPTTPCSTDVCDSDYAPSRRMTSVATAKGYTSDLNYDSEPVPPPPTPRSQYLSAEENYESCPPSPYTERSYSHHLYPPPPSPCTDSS
Procedure: (§1) HEK293 cells were treated with mock or recombinant mouse DKK2 protein (4 nM) in culture medium for duration indicated. The cells were washed with pre-cold PBS and cell surface proteins were biotinylated with 0.5 mg/ml of EZ-Link Sulfo-NHS-SS-Biotin (Thermo Fisher, 21445) in a PBS buffer on ice for 30 min. The reaction was stopped by addition of PBS containing ice-cold 50 mM NH4Cl, followed by repeated washes with ice-cold PBS. The cells were then lysed with in a buffer containing 1.25% Triton X-100, 0.25% SDS, 50 mM Tris HCl PH8.0, 150 mM NaCl, 5 mM EDTA, 5 mg/ml iodoacetamide, 10 ug/ml PMSF, and the Roche proteinase inhibitor cocktail. After centrifugation, aliquots were taken as lysate controls, and the rest of supernatants were used in pull-down with NeutrAvidin beads (Thermo Fisher, 29200), followed by analysis by Western blotting.

[2] = system: CD8+ intraepithelial cells from intestines; test: Mouse primary intraepithelial lymphocytes; format: cell-based; conditions: IL-15, 10 nM DKK2, 24 hour
Procedure: (§2) Mouse primary NK and CD8+ T cells were isolated from the spleens by using the NK cell and CD8+ T cell isolation kits according to the manufacturer's instructions (Miltenyi Biotec #130-090-864 and #130-104-075), respectively. Primary NK cells were cultured in RPMI-1640 (Gibco, 11875-093) supplemented with 10% FBS, penicillin (100 U/ml), streptomycin (100 μg/ml), 2-mercaptoethanol (500 μM) and HEPES (10 mM) at 37° C. supplemented with 5% CO2 in the presence of recombinant murine IL-15 (50 ng/ml) for 24 hours before treatment with DKK2, CHIR99021, or WNT3A. CD8+ T cells were cultured in the same culture medium and condition as NK cells, but supplemented with IL-15 (200 ng/ml) and IL-15 Rα (1 μg/ml recombinant Mouse IL-15 receptor alpha Fc chimera Protein from R&D) for 96 hours before DKK2 treatment. Mouse primary intraepithelial lymphocytes (IELs) were prepared as described in (Little et al., The Journal of Immunology 175, 6713-6722 (2005) and Li et al. Infect Immun 80, 565-574 (2012)). […]

primary mouse NK cells = test: IL-15-cultured primary mouse NK cells (flow cytometry, Western); format: cell-based
Procedure: Cells in single cell suspension were fixed with 2% PFA (Santa-Cruz sc-281692). After washing with a Flow Cytometry Staining Buffer (eBioscience 00-4222-26), cells were stained with antibodies for cell surface markers for 1 hour on ice in the dark. For staining of intracellular proteins, the cells were washed and resuspended in the Permeabilization Buffer (BD 554723) and stained by antibodies in the Permeabilization Buffer for 1 hour on ice in the dark. The cells were then pelleted and resuspended in the Flow Cytometry Staining Buffer for flow cytometry analysis.
Mouse primary NK and CD8+ T cells were isolated from the spleens by using the NK cell and CD8+ T cell isolation kits according to the manufacturer's instructions (Miltenyi Biotec #130-090-864 and #130-104-075), respectively. Primary NK cells were cultured in RPMI-1640 (Gibco, 11875-093) supplemented with 10% FBS, penicillin (100 U/ml), streptomycin (100 μg/ml), 2-mercaptoethanol (500 μM) and HEPES (10 mM) at 37° C. supplemented with 5% CO2 in the presence of recombinant murine IL-15 (50 ng/ml) for 24 hours before treatment with DKK2, CHIR99021, or WNT3A. CD8+ T cells were cultured in the same culture medium and condition as NK cells, but supplemented with IL-15 (200 ng/ml) and IL-15 Rα (1 μg/ml recombinant Mouse IL-15 receptor alpha Fc chimera Protein from R&D) for 96 hours before DKK2 treatment. Mouse primary intraepithelial lymphocytes (IELs) were prepared as described in (Little et al., The Journal of Immunology 175, 6713-6722 (2005) and Li et al. Infect Immun 80, 565-574 (2012)). In brief, the small intestine was everted, divided into four pieces, and washed twice in phosphate-buffered saline (PBS) containing 100 U/ml penicillin/streptomycin The specimens were then incubated with stirring at 37° C. in prewarmed Ca2+ and Mg2+-free Hanks' solution containing 100 U/ml penicillin-streptomycin, 5% fetal calf serum (FCS), 2 mM dithiothreitol (DTT), and 5 mM EDTA for 30 min, followed by vigorous shaking for 30 s. The supernatants were passed over two nylon wool columns to remove undigested tissue debris. The lymphocytes obtained were pooled and enriched on a discontinuous (40% and 70%) Percoll density gradient. Cells at the interface between the 40% and […], fractions (IELs) were collected for treatment with IL-15 (200 ng/ml) and DKK2 (200 ng/ml), followed by flow analysis.

[3] = system: tumor infiltrated leukocytes (CD8+ and NK1.1+ cells); test: Flow cytometry of tumor infiltrated leukocytes, MC38 tumors; format: in vivo, mouse; conditions: MC38, intratumoral DKK2 protein 600 ng/25 μl/tumor, three times every 8 hours
Procedure: Tumors were minced using scissors and scalpel blades and incubated with a digestion buffer [RPMI1640, 5% FBS, 1% PS, 25 mM HEPES and 300 U collagenase (Sigma C0130)] in a shaker for 2 h at 37° C. Disperse cells were filtered through a 70 μm cell strainer to eliminate clumps and debris. After centrifugation for 5 minutes (500×g) at 4° C., cell pellets were resuspended in the Red Blood Cell Lysis Buffer (Sigma R7757) and incubated at RT for 5 min to remove erythrocytes. Cells were pelleted again, resuspended and incubated in 0.05% Trypsin/EDTA at 37° C. for 5 min, followed by DNA digestion with the addition of Type I DNase (1 μg/ml final, Sigma D4263) for 5 min. Trypsin digestion was stopped by the addition of FBS to 5%, and cells were filtered again by a 40 μm cell strainer. Finally, the cells were pelleted again and resuspended in PBS at a concentration of […].
Cells in single cell suspension were fixed with 2% PFA (Santa-Cruz sc-281692). After washing with a Flow Cytometry Staining Buffer (eBioscience 00-4222-26), cells were stained with antibodies for cell surface markers for 1 hour on ice in the dark. For staining of intracellular proteins, the cells were washed and resuspended in the Permeabilization Buffer (BD 554723) and stained by antibodies in the Permeabilization Buffer for 1 hour on ice in the dark. […]

[4] = system: primary mouse NK cells with MC38 or YUMM1.7 cells; test: NK and tumor cell co-culture; format: cell-based; conditions: NK cells pre-treated with DKK2 8 nM 24 hrs, MC38 7:1
Procedure: Primary NK cells were isolated from the spleens as described above and cultured in the presence of 50 ng/ml recombinant murine IL-15 for 24 hours. Meanwhile, tumor cells were plated in the 96 well plate for overnight. NK cells were added into the tumor cells at 7:1 radio in the presence of the IgG3 antibody or anti-DKK2 5F8 for 9 hours at 37° C. For testing the effect of DKK2 in co-culture, isolated NK cells were cultured in the presence of 50 ng/ml recombinant murine IL-15 for 24 hours and then cultured in the presence or absence of DKK2 for another 24 hours before the NK cells were added to pre-seeded MC38 cells at 7:1 (NK:MC38) radio. The numbers of live tumor cells were determined by a Guava flow cytometer (EMDmillipore), whereas the cell apoptosis was assessed by flow cytometry using an Annexin V apoptosis detection kit (eBioscience, 88-8007).

[5] = system: mouse primary CD8+ T cells; test: Mouse primary CD8+ T cells; format: cell-based
Procedure: as §2

[6] = system: Wnt reporter gene TOPFlash; test: Wnt reporter gene (TOPFlash) assay in HEK293 cells; format: cell-based
Procedure: The Stat5 reporter assays were done in HEK293T cells for activated JAK1-induced activity or in those stably expressing JAK3, IL2/15Rβ and the common receptor γ subunit for IL15 induced activity. Cells were seeded at 8×10^4 cells per well in 48 well plate. The next day, cells were transfected by Lipofectamine 2000 (Invitrogen) with the pGL4.52-STAT5-Luciferase (Promega) and tagRFP (internal control) plasmids together with other plasmids expressing genes of interest. The total amount of plasmid was kept at 125 ng per well. The cells were added 24 hours after transfection with IL15/IL15Rα-Fc complex or mock. Six hours later, the cells were lysed and subjected to RFP fluorescence and luciferase luminescence measurement using an Envision Multilabel plate reader. The reporter gene activity is shown after being normalized against RFP readings. The LEF reporter assay was carried out in HEK293 cells that were transfected with the TOPFlash and GFP plasmids. The rest is the same as above. The reporter gene activity is shown after being normalized against GFP readings.
A functional mouse monoclonal anti-DKK2 antibody (5F8) was developed to specifically target and neutralize DKK2, but to not cross react with DKK-1. […]

LRP5 = target: T2, LRP5 (Homo sapiens, UniProt O75197); test: LRP internalization assay, LRP5; format: cell-based; conditions: HEK293 cells, DKK2 4 nM
T2 construct: endogenous in cells; host or cells: HEK293
T2 sequence (O75197 32-1615): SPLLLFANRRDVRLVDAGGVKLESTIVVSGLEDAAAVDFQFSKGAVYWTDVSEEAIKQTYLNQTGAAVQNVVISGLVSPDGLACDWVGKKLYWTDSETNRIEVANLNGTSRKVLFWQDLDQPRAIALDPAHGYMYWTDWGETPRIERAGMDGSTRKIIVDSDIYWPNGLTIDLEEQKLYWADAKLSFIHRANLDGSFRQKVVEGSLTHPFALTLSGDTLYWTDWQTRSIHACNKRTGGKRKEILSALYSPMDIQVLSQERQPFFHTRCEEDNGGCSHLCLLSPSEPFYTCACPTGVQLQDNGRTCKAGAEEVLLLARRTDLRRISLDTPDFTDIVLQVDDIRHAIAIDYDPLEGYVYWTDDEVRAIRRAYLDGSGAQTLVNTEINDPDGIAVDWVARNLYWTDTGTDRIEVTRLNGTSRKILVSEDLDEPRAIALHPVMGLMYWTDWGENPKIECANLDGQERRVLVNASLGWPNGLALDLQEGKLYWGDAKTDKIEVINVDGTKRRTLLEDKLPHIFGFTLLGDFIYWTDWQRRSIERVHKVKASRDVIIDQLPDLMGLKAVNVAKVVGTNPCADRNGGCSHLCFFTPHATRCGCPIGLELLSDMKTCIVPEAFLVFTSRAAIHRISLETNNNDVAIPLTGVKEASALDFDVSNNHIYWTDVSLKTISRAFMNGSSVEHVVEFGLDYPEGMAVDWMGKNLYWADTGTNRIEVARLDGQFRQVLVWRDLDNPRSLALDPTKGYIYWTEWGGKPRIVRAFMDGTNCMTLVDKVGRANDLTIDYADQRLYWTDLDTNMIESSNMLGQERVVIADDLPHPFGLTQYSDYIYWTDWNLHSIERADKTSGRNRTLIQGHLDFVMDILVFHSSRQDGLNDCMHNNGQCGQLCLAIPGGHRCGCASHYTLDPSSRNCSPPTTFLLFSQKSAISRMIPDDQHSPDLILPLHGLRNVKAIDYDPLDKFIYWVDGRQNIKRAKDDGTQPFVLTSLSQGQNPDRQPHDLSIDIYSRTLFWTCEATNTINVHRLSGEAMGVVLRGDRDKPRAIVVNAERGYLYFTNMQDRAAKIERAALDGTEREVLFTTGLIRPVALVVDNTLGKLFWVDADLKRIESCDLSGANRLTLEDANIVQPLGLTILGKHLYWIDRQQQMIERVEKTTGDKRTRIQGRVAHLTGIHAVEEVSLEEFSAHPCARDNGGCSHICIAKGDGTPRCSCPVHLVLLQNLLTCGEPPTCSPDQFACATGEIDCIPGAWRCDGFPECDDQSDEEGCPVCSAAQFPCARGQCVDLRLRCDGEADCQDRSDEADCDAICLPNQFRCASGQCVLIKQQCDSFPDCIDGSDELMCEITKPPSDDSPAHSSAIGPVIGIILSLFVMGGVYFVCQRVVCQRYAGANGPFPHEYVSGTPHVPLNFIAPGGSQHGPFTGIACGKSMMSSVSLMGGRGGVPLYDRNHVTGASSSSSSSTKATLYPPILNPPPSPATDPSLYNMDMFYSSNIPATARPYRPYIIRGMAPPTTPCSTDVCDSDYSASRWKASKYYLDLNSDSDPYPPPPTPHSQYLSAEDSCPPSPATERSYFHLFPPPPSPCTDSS
Procedure: as §1

human NK cells = test: Human NK cells cultured with IL-15; format: cell-based; conditions: human IL-15 50 ng/ml, 10 nM human DKK2, 24 hour
Procedure: Peripheral blood mononuclear cells from normal humans were purchased from ZenBio (SER-PBMC-200). Human NK cells were isolated from the PBMCs by using the human NK cell isolation kit according to the manufacturer's instruction (Miltenyi Biotec #130-092-657). Human NK cells were cultured in RPMI-1640 (Gibco, 11875-093) supplemented with 10% heat-inactivated FBS, penicillin (100 U/ml), streptomycin (100 μg/ml), 2-mercaptoethanol (500 μM) and HEPES (10 mM) at 37° C. supplemented with 5% CO2 in the presence of recombinant human IL-15 (50 ng/ml) before treatment with recombinant human DKK2 protein.

B1: DKK2: Recombinant Dickkopf 2 protein (mouse; human for human NK cells), also used as conditioned medium (protein)
chain: KLNSIKSSLGGETPAQSANRSAGMNQGLAFGGSKKGKSLGQAYPCSSDKECEVGRYCHSPHQGSSACMLCRRKKKRCHRDGMCCPGTRCNNGICIPVTESILTPHIPALDGTRHRDRNHGHYSNHDLGWQNLGRPHSKMPHIKGHEGDPCLRSSDCIDGFCCARHFWTKICKPVLHQGEVCTKQRKKGSHGLEIFQRCDCAKGLSCKVWKDATYSSKARLHVCQKI
Q: B1 was tested. Which “co-localization of phospho-STAT5 with EEA1” value ([1]; DKK2-treated NK cells) did it give?
A: The value was “partially co-localized with early endosome marker”.

Q: What about the “localization of phospho-STAT5 in NK cells” value ([1]; IL-15, DKK2-treated primary NK cells) of the same molecule?
A: The value was “cytosolic localization of phospho-STAT5 was readily detected”.

Q: And the “phospho-STAT5 nuclear localization in NK cells lacking LRP5” value ([1]; LRP5-/- NK cells)?
A: Its value is “failed to cause impairment of phospho-STAT5 nuclear localization”.

Q: And the “internalization of LRP6” value (LRP6)?
A: Its value is “not LRP6”.

Q: What about the “activation of CD8+ intraepithelial cells” value [2] of the same molecule?
A: The value was “directly suppresses”.

Q: And the “granzyme B (Western)” value (primary mouse NK cells; DKK2-treated samples)?
A: Its value is “reduced granzyme B”.

Q: And the “perforin (Western)” value (primary mouse NK cells; DKK2-treated samples)?
A: Its value is “reduced perforin”.

Q: And the “phosphorylated STAT5, ERK and AKT stimulated by IL-15” value (primary mouse NK cells; DKK2 treatment, Western)?
A: Its value is “No notable changes in phosphorylated STAT5, ERK, and AKT”.

Q: What about the “dose dependence of inhibition of NK cell activation” value (primary mouse NK cells; FIG. 4F) of the same molecule?
A: The value was “dose-dependent”.

Q: What about the “granzyme B and NK activation markers” value (primary mouse NK cells; IL-15 50 ng/ml 24 hrs, then DKK2 8 nM 24 hours) of the same molecule?
A: The value was “significant reductions in granzyme B as well as a number of other NK activation markers, including CD69, IFNY, CD107a, and CD314”.

Q: And the “activation of LRP5-deficient NK cells” value (primary mouse NK cells; LRP5-/- NK cells)?
A: Its value is “failed to inhibit”.

Q: And the “activation of primary NK cells lacking LRP6” value (primary mouse NK cells; Lrp6-/- NK cells)?
A: Its value is “could still inhibit the activation”.

Q: What about the “tumor immune responses elicited by PD-1 blockade” value [3] of the same molecule?
A: Its value is “inhibited PD-1 blockade-induced increases in the numbers of tumor-infiltrated CD45+ and CD8+ cells and activation of CD8+ and NK cells”.

Q: What about the “ability of pre-treated NK cells to cause tumor cell apoptosis and death” value [4] of the same molecule?
A: The value was “reduced ability to cause tumor cell apoptosis and death”.

Q: What about the “T cell receptor-mediated activation of primary T cells” value [5] of the same molecule?
A: Its value is “does not inhibit T cell receptor-mediated activation”.

Q: What about the “IL-15-mediated activation of mouse primary CD8+ T cells” value ([5]; IL-15+IL15Rα-Fc 4 days, DKK2 10 nM 24 hours) of the same molecule?
A: The value was “directly suppresses mouse primary CD8+”.

Q: What about the “Wnt reporter gene activity” value ([6]; DKK2 5 nM, Wnt3a 2 nM, CHIR 1 μM, 6 hrs (FIG. 10D)) of the same molecule?
A: Its value is “inhibited”.

Q: What about the Wnt reporter activity ([6]; HEK293, TOPFlash, conditioned medium (FIG. 1E)) of the same molecule?
A: The Wnt reporter activity was “inhibited Wnt signaling”.

Q: What about the “internalization of LRP5” value (LRP5) of the same molecule?
A: The value was “induces internalization of LRP5”.

Q: What about the “granzyme B expression in human NK cells” value (human NK cells) of the same molecule?
A: The value was “inhibit granzyme B expression in human NK cells”.
